{"source": "paper PMC8612281", "about": "“Aromatic Dimer Dehydrogenases from Novosphingobium aromaticivorans Reduce Monoaromatic Diketones” (Applied and Environmental Microbiology, 2021)", "experiment_in_all_cases": "purified protein", "key": {"[1]": {"substrate": "COc1cc(C(O)C(CO)Oc2ccccc2OC)ccc1O", "details": "0.1 mM NAD+, 0.1 μM enzyme, 25 mM Tris-HCl pH 8, 25 mM NaCl, oxidation"}, "[2]": {"substrate": "COc1cc(C(O)C(C)O)ccc1O", "format": "biochemical, Novosphingobium aromaticivorans", "details": "0.1 mM NAD+, 0.1 μM enzyme, 25 mM Tris-HCl pH 8, 25 mM NaCl, oxidation"}, "[3]": {"substrate": "COc1cc(C(=O)C(C)=O)ccc1O", "format": "biochemical, Novosphingobium aromaticivorans", "details": "0.1 mM NADH, 25 mM Tris-HCl pH 8, 25 mM NaCl, reduction of Cα ketone"}}, "data": [{"protein": "LigL (Novosphingobium aromaticivorans DSM 12444) (protein) MGIETFAGRTAFVTGGASGIGLGIVKALARRDAFVVIADMRTDHISRALKALASAGLGESVAAVELDVTDRAAYASMARRMDEEFGGIDVLVNNAGVGVEGPILQATYPDWDFGLGVNLGGVVNGLQAMLPQMIAHGRGGHVVNTASLAATVVMPGHLAIYAAGKAAVLNLTENMRADLAGRGIGSSVLCPGFVRSNIHEAARNRPAHLREGSGFAASEQALSMRETGSEWMDPDAVGEMVADAILADQLYVITHGEFANRMRERAEALLAATPVCEMQF", "values": [{"measurement": "Km", "setting": "[1]", "result": 440, "unit": "µM"}, {"measurement": "kcat", "setting": "[1]", "result": 0.12, "unit": "s⁻¹"}, {"measurement": "Km", "setting": "[2]", "result": 1530, "unit": "µM"}, {"measurement": "kcat", "setting": "[2]", "result": 0.03, "unit": "s⁻¹"}, {"measurement": "Km", "setting": "[3]; 0.01 μM enzyme", "result": 3400, "unit": "µM"}, {"measurement": "kcat", "setting": "[3]; 0.01 μM enzyme", "result": 1.44, "unit": "s⁻¹"}]}, {"protein": "LigN (Novosphingobium aromaticivorans DSM 12444) (protein) MQNLPGKTAFVTGGASGIGLGIAKALLGAGMNVTIADIRQDHLDSAVAELGGGERVLAVKLDVTNRDQFAKAADATEAKFGKIHLLVNNAGVAVVGPTELATFADWDWVMGVNVNGTINGIVTILPRILAHGEGGHIVCTASMSALVPVAGTTIYSAGKAAVTAMMECMRPELEGRGVICSAFCPGAVQSNIADAAKTRPAELADTGYAEADKRRAAGGNFMHLYQTKEQVGERVLEGILNDELYILTHAEFLTGVEERGLATTAAVQTHLPENPEYKETFAALFRNPAITDEIARQNKLKETRKAGVEA", "values": [{"measurement": "Km", "setting": "[1]", "result": 80, "unit": "µM"}, {"measurement": "kcat", "setting": "[1]", "result": 0.30, "unit": "s⁻¹"}, {"measurement": "Km", "setting": "[3]; 0.1 μM enzyme", "result": 310, "unit": "µM"}, {"measurement": "kcat", "setting": "[3]; 0.1 μM enzyme", "result": 0.1, "unit": "s⁻¹"}]}, {"protein": "LigD (Novosphingobium aromaticivorans DSM 12444) (protein) MQSFENEIAFITGGASGAGFGQAQVFGRAGAKIVVADVRAEAVERAVAALKAEGIVAHGLVLDITDRQAYAGAADEVEQVFGAAPTLLFNTAGVNSFGPVEDTSYDDFDWIVGVNLGGVINGMVTFVPRMIASGRPGHIVTTSSLGGLMGSALAAPYSAAKAAVINLMESYRQGLDKHGIGVSVLCPANIKSNIAEASRLRPAQFGKSGYVENEESIASLHSIHQHGMDPVELAEHVKAGIVANQLYIIPYPEAKDGLRQHFDAIVDAVLPLEADPEGARARTEALNAWAADRARVFMEKNAAQKA", "values": [{"measurement": "Km", "setting": "[1]", "result": 70, "unit": "µM"}, {"measurement": "kcat", "setting": "[1]", "result": 0.2, "unit": "s⁻¹"}, {"measurement": "Km", "setting": "[3]; 0.1 μM enzyme", "result": 410, "unit": "µM"}, {"measurement": "kcat", "setting": "[3]; 0.1 μM enzyme", "result": 0.02, "unit": "s⁻¹"}]}]}
